Sequences and labels used below:
B1: chimera protein of the DNA-binding region of GAL4 and the bHLH-PAS region part of the present transcription regulatory factor (mNXF) (other)
chain: MKLLSSIEQACDICRLKKLKCSKEKPKCAKCLKNNWECRYSPKTKRSPLTRAHLTEVESRLERLEQLFLLIFPREDLDMILKMDSLQDIKALLTGLFVQDNVNKDAVTDRLASVETDMPLTLRQHRISATSSSEESSNKGQRQLTVSMYRSTKGASKARRDQINAEIRNLKELLPLAEADKVRLSYLHIMSLACIYTRKGVFFAGGTPLAGPTGLLSAQELEDIVAALPGFLLVFTAEGKLLYLSESVSEHLGHSMVDLVAQGDSIYDIIDPADHLTVRQQLTMPSALDADRLFRCRFNTSKSLRRQSSGNKLVLIRGRFHAHPPGAYWAGNPVFTAFCAPLEPRPRPGPGPGPGPGPASLFLAMFQSRHAKDLALLDVSESVLIYLGFERSELLCKSWYGLLHPEDLAQASSQHYRLLAESGDIQAEMVVRLQAKHGGWTWIYCMLYSEGPEGPFTANNYPISDT
notes: Expressed in HeLa cells for the two-hybrid assay; also called Gal4-mNXF; Gal4-NXF

Assay [1] deals with T1, chimera protein of the VP16 transcription activating region and the bHLH-PAS region part of Sim2 (human, UniProt Q14190 1-500).
T1 construct: domain: bHLH-PAS region part; also called VP16-Sim2; pVP16-Sim2 (bHLH-PAS) product
T1 sequence: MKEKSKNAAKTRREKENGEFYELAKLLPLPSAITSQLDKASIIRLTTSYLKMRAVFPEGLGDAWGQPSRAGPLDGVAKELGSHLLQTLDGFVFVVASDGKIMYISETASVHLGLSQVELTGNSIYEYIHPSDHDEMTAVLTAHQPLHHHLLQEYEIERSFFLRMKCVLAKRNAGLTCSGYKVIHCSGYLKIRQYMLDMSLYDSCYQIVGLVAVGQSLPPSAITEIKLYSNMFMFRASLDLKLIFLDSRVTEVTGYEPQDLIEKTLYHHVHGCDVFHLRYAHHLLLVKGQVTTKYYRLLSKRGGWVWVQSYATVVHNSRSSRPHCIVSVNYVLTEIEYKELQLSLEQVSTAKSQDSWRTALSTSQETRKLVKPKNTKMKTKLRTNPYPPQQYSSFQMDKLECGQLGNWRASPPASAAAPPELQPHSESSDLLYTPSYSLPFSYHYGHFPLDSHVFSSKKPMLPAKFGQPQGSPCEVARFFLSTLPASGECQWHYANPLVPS
Kind of assay: mammalian two-hybrid assay in HeLa cells (Gal4-NXF + VP16-X, luciferase reporter). (A reporter such as luciferase makes a cellular process visible.)

The target in assay [2] is T2, chimera protein of the VP16 transcription activating region and the bHLH-PAS region part of Clock (human, UniProt O15516 1-530).
T2 construct: domain: bHLH-PAS region part; also called VP16-Clock; pVP16-Clock (bHLH-PAS) product
T2 sequence: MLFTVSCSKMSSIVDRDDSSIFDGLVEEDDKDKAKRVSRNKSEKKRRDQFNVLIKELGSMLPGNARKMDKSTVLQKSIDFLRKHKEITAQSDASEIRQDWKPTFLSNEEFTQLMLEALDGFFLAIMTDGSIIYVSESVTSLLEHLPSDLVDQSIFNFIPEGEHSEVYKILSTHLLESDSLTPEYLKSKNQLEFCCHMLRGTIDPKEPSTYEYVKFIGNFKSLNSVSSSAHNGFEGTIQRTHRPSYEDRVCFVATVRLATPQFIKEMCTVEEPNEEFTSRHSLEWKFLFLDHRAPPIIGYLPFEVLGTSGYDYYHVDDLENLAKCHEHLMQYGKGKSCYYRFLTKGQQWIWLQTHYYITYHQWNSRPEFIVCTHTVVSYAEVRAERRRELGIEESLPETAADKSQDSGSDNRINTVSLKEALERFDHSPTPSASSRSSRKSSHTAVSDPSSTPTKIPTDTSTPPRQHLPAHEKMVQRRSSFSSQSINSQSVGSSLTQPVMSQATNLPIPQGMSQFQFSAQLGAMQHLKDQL
Described as above.

Assay [3] has as its target B1. Briefly: mammalian two-hybrid assay in HeLa cells (Gal4-NXF + VP16-NXF, luciferase reporter).

In the case of B1, the binding result in assay [1] and in assay [2] was “no binding” each time.

B2: chimera protein of the VP16 transcription activating region and the bHLH-PAS region part of the present transcription activating factor (mNXF) (other)
chain: MYRSTKGASKARRDQINAEIRNLKELLPLAEADKVRLSYLHIMSLACIYTRKGVFFAGGTPLAGPTGLLSAQELEDIVAALPGFLLVFTAEGKLLYLSESVSEHLGHSMVDLVAQGDSIYDIIDPADHLTVRQQLTMPSALDADRLFRCRFNTSKSLRRQSSGNKLVLIRGRFHAHPPGAYWAGNPVFTAFCAPLEPRPRPGPGPGPGPGPASLFLAMFQSRHAKDLALLDVSESVLIYLGFERSELLCKSWYGLLHPEDLAQASSQHYRLLAESGDIQAEMVVRLQAKHGGWTWIYCMLYSEGPEGPFTANNYPISDT
notes: also called VP16-NXF; pVP16-NXF (bHLH-PAS) product
B2: the binding result in assay [3] was “no binding”.

Source of the values: patent publication US20060216705A1 (SUMITOMO CHEMICAL, published 2006).
